# From the Human Domainome abundance scans (Beltran et al. 2025)
# ± gives the uncertainty stated by the source.
# B1: Neutrophil cytosol factor 2, residues 456 to 514; numbered along this chain, P19878 (parent)
# chain: LKKGSQVEALFSYEATQPEDLEFQEGDIILVLSKVNEEWLEGECKGKVGIFPKVFVEDC
# Variants of: B1
# Assay: abundance fitness (aPCA) (normalised: wild type 0, dead -1); higher = more abundant; growth selection in yeast, the domain comes from the species named
# Details: Homo sapiens
row,Variant,abundance fitness
1,LKKGSQVEALFSYEATQPEDLEFQEGDIILVLSKVNEEWLEGECKGKVDIFPKVFVEDC [G49D],-0.478 ± 0.13
2,LKKGSQVEALFSYEATQPEDLEFQEGDIILVLSKVNEEWLEGECKGKVPIFPKVFVEDC [G49P],-0.722 ± 0.3
3,LKKGSQVEALFSYEATQPEDLEFQEGDIILVLSKVNEEWLEGECKGKVLIFPKVFVEDC [G49L],-0.42 ± 0.12
4,LKKGSQVEALFSYEATQPEDLEFQEGDIILVLSKVNEEWLEGECKGKVMIFPKVFVEDC [G49M],-0.075 ± 0.22
5,LKKGSQVEALFSYEATQPEDLEFQEGDIILVLSKVNEEWLEGECKGKVIIFPKVFVEDC [G49I],-0.427 ± 0.11
6,LKKGSQVEALFSYEATQPEDLEFQEGDIILVLSKVNEEWLEGECKGYVGIFPKVFVEDC [K47Y],-0.742 ± 0.14
7,LKKGSQVEALFSYEATQPEDLEFQEGDIILVLSKVNEEWLEGECKGIVGIFPKVFVEDC [K47I],-0.642 ± 0.15
8,LKKGSQVEALFSYEATQPEDLEFQEGDIILVLSKVNEEWLEGECKGVVGIFPKVFVEDC [K47V],-0.331 ± 0.1
9,LKKGSQVEALFSYEATQPEDLEFQEGDIILVLSKVNEEWLEGECKGEVGIFPKVFVEDC [K47E],-0.822 ± 0.42
10,LKKGSQVEALFSYEATQPEDLEFQEGDIILVLSKVNEEWLEGECKGGVGIFPKVFVEDC [K47G],-0.511 ± 0.13
11,LKKGSQVEALFSYEATQPEDLEFQEGDIILVLSKVNEEWLEGECKGPVGIFPKVFVEDC [K47P],-0.806 ± 0.27
12,LKKGSQVEALFSYEATQPEDLEFQEGDIILVLSKVNEEWLEGECKGTVGIFPKVFVEDC [K47T],-0.284 ± 0.13
13,LKKGSQVEALFSYEATQPEDLEFQEGDIILVLSKVNEEWLEGECKGAVGIFPKVFVEDC [K47A],-1.04 ± 0.27
14,LKKGSQVEALFSYEATQPEDLEFQEGDIILVLSKVNEEWLEGECKGLVGIFPKVFVEDC [K47L],-0.361 ± 0.094
15,LKKGSQVEALFSYEATQPEDLEFQEGDIILVLSKVNEEWLEGECKGDVGIFPKVFVEDC [K47D],-0.858 ± 0.21
16,LKKGSQVEALFSYEATQPEDLEFQEGDIILVLSKVNEEWLEGECKGRVGIFPKVFVEDC [K47R],-0.118 ± 0.11
17,LKKGSQVEALFSYEATQPEDLEFQEGDIILVLSKVNEEWLEGECKGCVGIFPKVFVEDC [K47C],-0.658 ± 0.14
18,LKKGSQVEALFSYEATQPEDLEFQEGDIILVLSKVNEEWLEGECKGNVGIFPKVFVEDC [K47N],-0.271 ± 0.1
19,LKKGSQVEALFSYEATQPEDLEFQEGDIILVLSKVNEEWLEGECKGFVGIFPKVFVEDC [K47F],-0.241 ± 0.1
20,LKKGSQVEALFSYEATQPEDLEFQEGDIILVLSKVNEEWLEGECKGMVGIFPKVFVEDC [K47M],-0.924 ± 0.32
21,LKKGSQVEALFSYEATQPEDLEFQEGDIILVLSKVNEEWLEGECKGSVGIFPKVFVEDC [K47S],-0.22 ± 0.095
22,LKKGSQVEALFSYEATQPEDLEFQEGDIILVLSKVNEEWLEGECKGQVGIFPKVFVEDC [K47Q],-0.856 ± 0.41
23,LKKGSQVEALFSYEATQPEDLEFQEGDIILVLSKVNEEWLEGECKGWVGIFPKVFVEDC [K47W],-0.416 ± 0.24

row,Variant,abundance fitness
1,LKKGSQVEALFSYEATQPEDLEFQEGDIILVLSKVNEEWLEGECKGHVGIFPKVFVEDC [K47H],-0.673 ± 0.2
2,LKKGSQVEALFSYEATQPEDLEFQEGDIILVLSKVNEEWLEGECSGKVGIFPKVFVEDC [K45S],-0.691 ± 0.17
3,LKKGSQVEALFSYEATQPEDLEFQEGDIILVLSKVNEEWLEGECYGKVGIFPKVFVEDC [K45Y],-0.505 ± 0.16
4,LKKGSQVEALFSYEATQPEDLEFQEGDIILVLSKVNEEWLEGECRGKVGIFPKVFVEDC [K45R],0.012 ± 0.11
5,LKKGSQVEALFSYEATQPEDLEFQEGDIILVLSKVNEEWLEGECQGKVGIFPKVFVEDC [K45Q],-0.577 ± 0.5
6,LKKGSQVEALFSYEATQPEDLEFQEGDIILVLSKVNEEWLEGECNGKVGIFPKVFVEDC [K45N],0.203 ± 0.096
7,LKKGSQVEALFSYEATQPEDLEFQEGDIILVLSKVNEEWLEGECHGKVGIFPKVFVEDC [K45H],0.232 ± 0.12
8,LKKGSQVEALFSYEATQPEDLEFQEGDIILVLSKVNEEWLEGECPGKVGIFPKVFVEDC [K45P],-0.904 ± 0.28
9,LKKGSQVEALFSYEATQPEDLEFQEGDIILVLSKVNEEWLEGECWGKVGIFPKVFVEDC [K45W],-0.125 ± 0.25
10,LKKGSQVEALFSYEATQPEDLEFQEGDIILVLSKVNEEWLEGECVGKVGIFPKVFVEDC [K45V],-0.734 ± 0.17
11,LKKGSQVEALFSYEATQPEDLEFQEGDIILVLSKVNEEWLEGECTGKVGIFPKVFVEDC [K45T],-0.562 ± 0.19
12,LKKGSQVEALFSYEATQPEDLEFQEGDIILVLSKVNEEWLEGECIGKVGIFPKVFVEDC [K45I],-0.937 ± 0.18
13,LKKGSQVEALFSYEATQPEDLEFQEGDIILVLSKVNEEWLEGECKGKVGNFPKVFVEDC [I50N],-0.821 ± 0.22
14,LKKGSQVEALFSYEATQPEDLEFQEGDIILVLSKVNEEWLEGECKGKVGAFPKVFVEDC [I50A],-0.213 ± 0.17
15,LKKGSQVEALFSYEATQPEDLEFQEGDIILVLSKVNEEWLEGECKGKVGCFPKVFVEDC [I50C],-0.4 ± 0.15
16,LKKGSQVEALFSYEATQPEDLEFQEGDIILVLSKVNEEWLEGECKGKVGMFPKVFVEDC [I50M],-0.621 ± 0.31
17,LKKGSQVEALFSYEATQPEDLEFQEGDIILVLSKVNEEWLEGECKGKVGDFPKVFVEDC [I50D],-0.306 ± 0.16
18,LKKGSQVEALFSYEATQPEDLEFQEGDIILVLSKVNEEWLEGECKGKVGEFPKVFVEDC [I50E],-0.58 ± 0.32
19,LKKGSQVEALFSYEATQPEDLEFQEGDIILVLSKVNEEWLEGECKGKVGHFPKVFVEDC [I50H],-0.371 ± 0.18
20,LKKGSQVEALFSYEATQPEDLEFQEGDIILVLSKVNEEWLEGECKGKVGKFPKVFVEDC [I50K],0.108 ± 0.18
21,LKKGSQVEALFSYEATQPEDLEFQEGDIILVLSKVNEEWLEGECKGKVGFFPKVFVEDC [I50F],-0.389 ± 0.14
22,LKKGSQVEALFSYEATQPEDLEFQEGDIILVLSKVNEEWLEGECKGKVGGFPKVFVEDC [I50G],-0.347 ± 0.12
